Measured values published in patent US20090317364A1, “NOVEL COMPOSITIONS FOR PREVENTION AND TREATMENT OF MASTITIS AND METRITIS” (priority 2006, published 2009).

Columns and labels:
[1] = test system: Staphylococcus. aureus; assay: Lab trials 2b (in vitro) for synergy, components added on top of the culture; assay type: cell-based
From the text: b) Lab trials 2b (in vitro) for synergy.

[2] = test system: Staphylococcus. aureus; assay: Lab trials 2a (in vitro) for synergy, components added in wells for diffusion; assay type: cell-based
From the text: a) Lab trials 2a (in vitro) for synergy.

B1: Serratiopeptidase (protein, UniProt P07268 17-487, looked up)
Serralysin: AATTGYDAVDDLLHYHERGNGIQINGKDSFSNEQAGLFITRENQTWNGYKVFGQPVKLTFSFPDYKFSSTNVAGDTGLSKFSAEQQQQAKLSLQSWADVANITFTEVAAGQKANITFGNYSQDRPGHYDYGTQAYAFLPNTIWQGQDLGGQTWYNVNQSNVKHPATEDYGRQTFTHEIGHALGLSHPGDYNAGEGNPTYRDVTYAEDTRQFSLMSYWSETNTGGDNGGHYAAAPLLDDIAAIQHLYGANLSTRTGDTVYGFNSNTGRDFLSTTSNSQKVIFAAWDAGGNDTFDFSGYTANQRINLNEKSFSDVGGLKGNVSIAAGVTIENAIGGSGNDVIVGNAANNVLKGGAGNDVLFGGGGADELWGGAGKDIFVFSAASDSAPGASDWIRDFQKGIDKIDLSFFNKEAQSSDFIHFVDHFSGAAGEALLSYNASNNVTDLSVNIGGHQAPDFLVKIVGQVDVATDFIV
notes: proteolytic enzyme isolated from the non-pathogenic Enterobacteria Serratia E15, CAS 37312-62-2
- Inhibition zone In diameter cm for Staphylococcus. aureus [1]: 0.61 cm
- Inhibition zone diameter In cm for Staphylococcus. aureus [2]: 0.5 cm
